Measured values from article PMC8640019.
pKd: −log10 of the molar value.

Molecular target: SH2B (human) (UniProt Q9NRF2)
Experiment: ITC

Ka: 1.45e+06 M⁻¹
pKd: 6.16
stoichiometry N: 0.79
Substance: JAK2 pY813 peptide
